B1: 14-3-3 protein zeta/delta (Homo sapiens), P63104 (parent)
chain: MDKNELVQKAKLAEQAERYDDMAACMKSVTEQGAELSNEERNLLSVAYKNVVGARRSSWRVVSSIEQKTEGAEKKQQMAREYREKIETELRDICNDVLSLLEKFLIPNASQAESKVFYLKMKGDYYRYLAEVAAGDDKKGIVDQSQQAYQEAFEISKKEMQPTHPIRLGLALNFSVFYYEILNSPEKACSLAKTAFDEAIAELDTLSEESYKDSTLIMQLLRDNLTLWTSDTQGDEAEAGEGGEN

Variants of: B1
Settings: with m3k5_human MAP3K5, Q99683
m3k5_human MAP3K5, Q99683, sequence (Q99683 whole entry): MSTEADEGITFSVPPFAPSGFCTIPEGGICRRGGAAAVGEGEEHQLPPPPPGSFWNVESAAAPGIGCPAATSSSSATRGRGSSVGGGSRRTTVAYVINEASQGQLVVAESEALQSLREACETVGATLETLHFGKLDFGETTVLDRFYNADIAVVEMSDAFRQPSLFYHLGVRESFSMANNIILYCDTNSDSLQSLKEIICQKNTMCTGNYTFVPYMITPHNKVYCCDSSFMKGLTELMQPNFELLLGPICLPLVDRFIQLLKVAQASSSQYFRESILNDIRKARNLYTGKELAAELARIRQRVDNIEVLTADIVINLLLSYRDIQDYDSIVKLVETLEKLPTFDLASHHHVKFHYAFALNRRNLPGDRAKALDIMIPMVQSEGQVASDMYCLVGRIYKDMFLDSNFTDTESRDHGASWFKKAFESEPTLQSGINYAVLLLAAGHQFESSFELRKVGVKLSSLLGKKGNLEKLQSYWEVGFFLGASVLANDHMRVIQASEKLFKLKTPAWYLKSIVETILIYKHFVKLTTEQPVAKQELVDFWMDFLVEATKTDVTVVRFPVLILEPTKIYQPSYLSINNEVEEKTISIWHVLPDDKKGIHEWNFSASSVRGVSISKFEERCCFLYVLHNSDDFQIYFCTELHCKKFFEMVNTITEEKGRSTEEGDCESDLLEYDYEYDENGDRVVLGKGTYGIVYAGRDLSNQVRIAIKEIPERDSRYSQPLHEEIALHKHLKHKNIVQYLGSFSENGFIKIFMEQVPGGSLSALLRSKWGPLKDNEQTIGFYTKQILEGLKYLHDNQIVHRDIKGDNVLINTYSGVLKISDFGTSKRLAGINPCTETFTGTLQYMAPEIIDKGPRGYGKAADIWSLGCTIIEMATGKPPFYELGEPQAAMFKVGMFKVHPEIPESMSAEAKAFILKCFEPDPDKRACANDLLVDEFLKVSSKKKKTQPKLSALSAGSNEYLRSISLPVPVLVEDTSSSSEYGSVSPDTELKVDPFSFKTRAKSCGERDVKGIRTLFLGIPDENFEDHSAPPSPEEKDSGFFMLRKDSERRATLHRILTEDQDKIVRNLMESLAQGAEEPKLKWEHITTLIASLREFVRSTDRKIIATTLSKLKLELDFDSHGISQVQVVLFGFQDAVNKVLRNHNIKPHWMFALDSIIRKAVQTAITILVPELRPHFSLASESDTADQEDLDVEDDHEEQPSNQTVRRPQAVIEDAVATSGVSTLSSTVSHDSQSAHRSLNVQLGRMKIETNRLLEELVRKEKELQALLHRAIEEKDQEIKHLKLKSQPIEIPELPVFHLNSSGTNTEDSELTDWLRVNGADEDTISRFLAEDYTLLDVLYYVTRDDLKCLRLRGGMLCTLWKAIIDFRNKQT

| effect of a mutation on the interaction | Variant |
| --- | --- |
| decreasing interaction | MDKNELVQKAKLAEQAERYDDMAACMKSVTEQGAELSNEERNLLSVAYENVVGARESSWEVVSSIEQKTEGAEKKQQMAREYREKIETELRDICNDVLSLLEKFLIPNASQAESKVFYLKMKGDYYRYLAEVAAGDDKKGIVDQSQQAYQEAFEISKKEMQPTHPIRLGLALNFSDFYYEILNSPEKACSLAKTAFDEAIAELDTLSEESYKDSTLIMQELRDNLTLWTSDTQGDEAEAGEGGEN [K49E;R56E;R60E;V176D;L220E] |

Source: IntAct's records for PubMed 15023544
